{"source": "IntAct's records for PubMed 12732628", "parents": {"B1": {"name": "Molybdopterin synthase sulfur carrier subunit (Homo sapiens), O96033 (parent)", "chain": "MVPLCQVEVLYFAKSAEITGVRSETISVPQEIKALQLWKEIETRHPGLADVRNQIIFAVRQEYVELGDQLLVLQPGDEIAVIPPISGG", "partner": "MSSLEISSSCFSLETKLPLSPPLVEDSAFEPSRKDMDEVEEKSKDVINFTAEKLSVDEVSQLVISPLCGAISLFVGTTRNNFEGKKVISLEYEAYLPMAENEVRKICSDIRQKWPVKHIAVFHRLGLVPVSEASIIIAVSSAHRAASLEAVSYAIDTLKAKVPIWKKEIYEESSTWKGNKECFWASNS"}}}
{"variants_of": "B1", "conditions": "with moc2b_human MOCS2, O96007"}
{"variant": "MVPLCQFEVLYFAKSAEITGVRSETISVPQEIKALQLWKEIETRHPGLADVRNQIIFAVRQEYVELGDQLLVLQPGDEIAVIPPISGG", "note": "[V7F]", "effect of a mutation on the interaction": "disrupting interaction"}
